Experiment: yeast display, Sf9 membrane polyspecificity reagent, FACS + sequencing; frameworks hold sequencing errors
Method in brief: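 A nanobody's polyreactivity label depends on the gate it was sorted from. Yeast display cells were stained with 10% biotinylated, detergent-solubilized Sf9 membrane reagent for 1 hour at 4 °C, enriched on streptavidin microbeads and sorted by FACS. The low and high (top ~1%) gates were set on anti-HA fluorescence for expression and streptavidin fluorescence for reagent binding.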

Row | Sequence | polyreactivity (PSR sort gate)
1 | QVQLVESGGGLVQAGGSLRLSCAASGRIFSSYAMGWYRQAPGKERELVAAISSSGGNTYYADSVKGRFTISRDNAKNTVYLQMNSLKPEDTAVYYCNTRWVHRDWYDYWGLGTQVTVSS | high polyreactivity
2 | QVQLVESGGGLVQAGGSLRLSCAASGRIFYYNAMGWYRQAPGKERELVAAISGSGGRTYYADSVKGRFTISRDNAKNTVYLQMNSLKPEDTAVYYCAAAGYDSNGRYWGQGTQVTVSS | high polyreactivity
3 | QVQLVESGGGLVQAGGSLRLSCAASGFTFRRYAMGWYRQAPGKERELVAAITRTGAGTYYADSVKGRFTISRDNAKNTVYLQMNSLKPEDTAVYYCAAAFYYASAMDYWGQGTQVTVSS | high polyreactivity
4 | QVQLVESGGGLVQAGGSLRLSCAASGRTFNVNVMGWYRQAPGKERELVAAIRYNGGSTYADSVKGRFTISRDNAKNTVYLQMNSLKPEDTAVYYCNADTFFPFEHGMDYWGQGTQVTVSS | low polyreactivity
5 | QVQLVESGGGLVQAGGSLRLSCSAYGLILRTYGMGWYRQAPGKERELVAVISSGGSTYYADSVKGRFTISRDNEKNTVYLQMNSLKPEDTAVYYCAVRSSWYEGDYWGQGTQVTVSS | low polyreactivity
6 | QVQLVESGGGLVQAGGSLRLSCAASGIIFDYNAMGWYRQAPGKERELVAAITSTDNTNYADSVKGRFTISRDNAKNTVYLQMNSLKPEDTAVYYCNTDYLLCVVYAMDYCGQGTQVTVSS | low polyreactivity
7 | HVQLVESGGGLVQAGGSLRLSCAASGIIFWTYTMGWYRQAPGKERELVGAISSGGSTKYADSVKGRFTISRDNAKNTVYLQMNSLKPADTAVYYCNAEFAPWGSAYGHDQYDYWGQGTQVTVSS | low polyreactivity
8 | QVQLVESGGGLVQAGGSLRLSCAASGFIFWYYAMGWYRQAPGKERELVAGITSGGSTNYADSVKGRFTISRDNAKNSVYLQMNSLKPEDTAVYYCAAAPYGGFGRGYDYWGQGTQVTVSS | high polyreactivity
9 | LVQVVESGGGLVQAGGSLGLSCAASGRIFRDYAMGWYRPATGKERELVAAISWSTVHTYYADSVKGRFTISRDNAKNTVYLQMNCLKPEDTAVYYCAVDRPGLTYYDYDYWGQGTQVTVSS | low polyreactivity
10 | QVQLVESGGGLVQAGGSLRLSSAASGFIFKYNAMGWYRKAPGKERELGAAITWSGGSTYYADSVKGRFTISRDNAKNTVYLQMNSLKPEDTAVYYCAARPYRTKLIYGYWGQGTHVTVSS | high polyreactivity
11 | QVQLVESGGGLVQAGGSLRLSCAASGSIFVSNARVWYRQAPGKERELVAANTSSGSTDYADSVKGRFTISRANAKNTVYLQMNSLKPEDTAVYYCAAESYHTFFLWSLNDSWGQGTQVTVSS | low polyreactivity
12 | QFQLVESGGGLVQAGGSLRLSCAASGRIFGVYAMGWYRQAPVKERQLVATISLSAGRTYYADSVKGRFTISRDNAKNTVYLQMNSLKPEDTAVYYCAAQSNYSIRRHYYTFRYSYDYWGQGTQVTVSS | high polyreactivity
13 | QVQIVESGGGLVQAGGSLRLRCAASGRIFSWNAMGWSRQAPGKERELVPAITWRGTSTYYADSVKGRFTISRDIAKNTVYLQMISLKPEDTAVYFCNVGLYRDWYTFGLEYDYWGQGTQVSVSS | low polyreactivity
14 | QVQLVESGGGLVQAGGSLRLSCAASGSIFSYYAMAWYRQAPGKERELVAAITWSGTRTYYADSVKGRFTISRDNAKNTVYLQMNSLKPEDTAVYYCAADSSIRDDYWGQGTQVTVSS | low polyreactivity
15 | QVQLVESGGGLVQAGGSLRLSCAASGRILGTNAKGWYRQAPGKERELVAAISRGGSTYYADSVKGRFTISRDNANNTVYLQMNSLKPEDTAVFYCAVTVLSKRRYYYWGQGTQVTVSS | high polyreactivity
16 | QVQLVESGGGLVQAGGSLRLSCAASGSIFGYYALGWSRQAPGKERELVAVITWNTGNTYYADSVKGRFTISRDNAKNTVYLEMNSLKPEDTAVYYCAADQTGWGDTYDYWGQGTQVTVSS | low polyreactivity
17 | QVQLVESGGGLVQAGGSLRLSCAASGRIFAYYAMGWNRQAPGKERELVAAISRSGVSTYYADSVKGRFTISRDNAKNTVYLQRNSLKPEDTAVYYCAARWRSGFTSGDYWGQGTLVTVSS | low polyreactivity
18 | QVQLVESGGGLVQAGGSLRLSCAASGSTFPSNAMGWYRQAPGKERELVAAISRSGGSTNYADSVKGRFTISRDNAKNTVYLQMNSLKPVDTAVYYCKADLGRATFYQRVFIERGGYWGQGTQVTVSS | low polyreactivity
19 | QVQLVESGGGLVQAGGSLRLSCAASGSTFSYYTMGWYRQSPGKERELVAVISTSGGNTYYADSVKGRFTISRDNAKNTVYLQMNSLKPEDTAVYYCAAAYPRVTYKNGYYWGQGTQVTVSS | high polyreactivity
20 | QVQLVESGGGLVQAGGSLRLSCAASGFIFPYNAMGWYRQAPGKERELVAVISSSGGDTYYADSVKGRFTISRDNAKNTVYLQMNSLKPEDTAVYYCAADSYYGYEYWGQGTQVTVSS | low polyreactivity
21 | QVQLVESGGGLVQAGGSLRLSCAASGFTFQGNVMGWYRQAPGKERELVAVITSGGSTYYADSVKGRFTISRDNAKNTVYLQMNSLKPEDTAVYYCAKLYNSYTWKYGYWGQGTQVTVSS | high polyreactivity
22 | QFQLVESGGGLVQAGGSLRLSCAASGLIFVYNDMGWYRQAPGKETELVAGITGTGGNTYYADSVKGRFTISRDNEKNTVYLQMNSLKPEDTAVYYCAASHTSYYLRYGYWGQGTQVTVSS | high polyreactivity

Row | Sequence | polyreactivity (PSR sort gate)
23 | QVQLVESGGGLVQAGASLSLSSAASGYIFYRYAMGWYRQAPGKERELVAAISSNGVSTYYADSVKGRFTISRDNAKNTVYLQLISLKPEDTAVYYCARDVYASPRRYNSRYNYWGQGTQVTVSS | low polyreactivity
24 | QDHLVESGGGLVQAGGSLRLICAANGRTFRRYAMGWYRQAPGKERELVATITSGGSTNYADSVKGRFTISRDNAKNTVYLQMNSLKPQDTAVYYCAARHGESHYDYWGQGTQVTVSS | low polyreactivity
25 | QVQLVESGGGLVQAGGSLRLSCAASGRTLYVYTMGWYRQAPGKERELVASISSGVGTNYADSVKGRFTISRDNAKNTVYLQMNSLKPEDTAVYYCAARFRYYRHYYWGQGTQVTVSS | high polyreactivity
26 | QFQLVDSGGSLVQAGSSLPLSCPASGRTFPYNVMGWYRQAPGKERELFASIDGSGGSTYYADSVKGRFTISRDYAKNTVYLQMNSLNPVDTAVYYCAAVYYQSGNYWYGYLGQSPYDYWGLGTQVTVSS | low polyreactivity
27 | QVQLVESGGGLVQAGGSLRLSCAASVIIFNLYAMGWYRQAPGKERELVAAISWSGGSTYYADSVKGRFTISRDNAKNTVYLQMNSLKPEDPAVYYCATSFLYPYFDEDDYWGQGTQVTVSS | high polyreactivity
28 | QVQLVESGGGLVQAGGSLRLSCAASGSIFSINTMGWYRQAPGKERELVAAITRSGSGTYYADSVKGRFTISRDNAKNTVYLQMNSLKPEDTAVYYCNADDWVGRSLRYDYWGQGTQVTVSS | low polyreactivity
29 | QVQLVESGGGLVQAGGSLRLSCAASGSIFGYYAMGWYRQAPGKERELVAAISRRGGSTYYADSVKGRFTISRDNAKNTVYLQMNSLKPEDTAVYYCAAVGGYASYFHLYYYWGQGTQVTVSS | high polyreactivity
30 | QVQLVESVGGLVQAGGSLRLSCAASGFTFGYYAMGWYRQAPGKERELVASISRSGGSTNYADSVKGRFTISRDNAKNTVYLQMNSLKPEDTAVYYCAKPLWDPKYDYWGQGTQVTVSS | high polyreactivity
31 | QVQLVESVGGLVQAGGSLRLSCAASGRIFYFYAMGWYRQAPGKERELVASISSGSSTNYADSVKGRFTISRDNAKNTVYLQMNSLKPEDTAVYYCAAQPWHGSRPRSYYWGQGTQVTVSS | high polyreactivity
32 | QVQLVESGGGLVQAGGILRLSCAASGYIFVRNAMGWYRQAPGKERELVAAISGSGGSTYYADSVKGRFTISRDNAKNTVYLQMNRLKPEDTEVYYCAADYATVTWRGIAYDYWGQGTQVTVSS | low polyreactivity
33 | QVQLVESGGGLVQAGGSLRLNCAASGSTFPKYAMGWYRQAPGKERELVAAISWSGDSTYYADSVKGRFTISRDNAKNSVYLKMNRLKPEDTAFYYCAAYNFIHAGPWVYEYWGQCTQVTVSS | low polyreactivity
34 | QVQLVESGGGLVQAGGSLRLSCAASGFTFGRKALGWYRQAPGKERELVAAISSSEHFYVRRLLKGRFTISRENAKNTVYLQMNSLKPEDTAVYYCATDNSGEVEYWGQGTQVTVSS | high polyreactivity
35 | QVQLVESGGGLVQAGGSLRLSCAASGSTFVYNAMGWYRQAPGKERELVAGISSSGGRTYYADSVKGRFTISRDNAKNTVYLQMNSLKPEDTAVYYCATGYRQGEYDYWGQGTQVTVSS | low polyreactivity
36 | QVQLVESGGGLVQAGGSLRLSCAASGSIFNLYGMGWYRQAPGKERELVAGSTSSGGSTHYADSVKGRFTISRDNAKNTVYLQMNSLKPEDTAVYYCAKVWSFPSNYRAYYYWGQGTQVTVSS | high polyreactivity
37 | QVQLVESGGGLVQAGGSLRLSGAASGRTFYQYAMGWYRQAPGKARELVAAISWSDGSTSYADSVKGRFTISRDNAKNTVYLQMNSLKPEDTAGYYCAKDWTGTKAIEYDYWGQGTQVTVSS | low polyreactivity
38 | QVQLVESGGGLVQAGGSLRLSCAASGITFGYNAMGWYRQAPGKDRELVAAITRSAGSTGYADSVKGRFTISRDNAKNTVYLQMNSLKPEDTAVYYCAAVRLSGSHRYGYWGQGTQVTVSS | high polyreactivity
39 | KVQLVESGGGLVQAGGSLRLSCAASGRIFRYYAMGWSRQAPGKERELVAAISRGGGSTYYADSVKGRFTISRDNAKNTVYLQMNSLKPEDTAVYYCANSVGRGPIGYDYWGQGTQVTVSS | high polyreactivity
40 | QVQLVESGGGLVQAGGSLRLSCAASGRIFDLNTMGWYRQAPGKERELVAAISSGGSTYYADSVNGRFTISRDNAKNTVYIQMNSLKPEDTAVYYCADAKIRGYLIRMYWGQRTQVTVSS | low polyreactivity
41 | QVQLQESGGVLVQAGGSLRLSCAASGSIYDDTYMGWYRQAPGKERELVATIDSGSTTNYADSVKGRITICRDNAKNSVDLQMNTLKPEDTAVYYCAAADSHIDYFDYWGQGTQVTVSS | low polyreactivity
42 | QVQLVESGGGLVQAGGSLRLSCAASGRTFWWYAMGWYRQAPGKERELVATINVSGGSTYYADSVKGRFTISRDNAKNTVYFQINSLKPEDTAVYYCNKRGFYTPSVSYDYWGQGTQVTVSS | low polyreactivity
43 | QVQLVESGGGLVQAGGSLRLSSAASGSIFGDYAMGWYRQSPGKERELVAAISSDGSTNYADSVKGRFTISRDNAKNTVYLQMNSLKPEDTAVYYCAADTGGWYFYSYYYWGQGTQVTVSS | low polyreactivity

From the nanobody polyreactivity screen of Harvey et al. (2022)
